{"source": "patent CN116926038A", "about": "“一种TrkA的抗原表位肽及其应用” (Guangdong HEC Pharmaceutical Co Ltd, priority 2022, dated 2023)", "key": {"Human-TrKB": {"molecular_target": "T1, Human-TrKB (Homo sapiens, UniProt Q16620)", "T1 construct": "purchased Sino Biological 10047-H08H", "T1 sequence (Q16620 32-430 limits assumed)": "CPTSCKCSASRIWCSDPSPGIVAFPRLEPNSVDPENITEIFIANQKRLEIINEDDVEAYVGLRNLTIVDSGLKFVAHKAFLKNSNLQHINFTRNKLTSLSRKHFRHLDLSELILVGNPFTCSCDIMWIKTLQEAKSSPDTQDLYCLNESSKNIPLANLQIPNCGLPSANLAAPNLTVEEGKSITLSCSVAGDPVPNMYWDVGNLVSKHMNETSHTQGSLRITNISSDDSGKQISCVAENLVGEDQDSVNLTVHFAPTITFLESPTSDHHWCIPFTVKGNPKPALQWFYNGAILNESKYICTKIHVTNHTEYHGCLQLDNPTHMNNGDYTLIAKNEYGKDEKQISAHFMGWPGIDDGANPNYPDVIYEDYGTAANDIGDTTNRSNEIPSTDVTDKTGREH", "assay": "ELISA binding of serum of peptide-immunised mice to Human-TrKB (Example 18)", "details": "serum dilutions 1:50 to 1:6400; blank serum as control"}, "Human-TrKC": {"molecular_target": "T2, Human-TrKC (Homo sapiens, UniProt Q16288)", "T2 construct": "purchased Sino Biological 10048-H08H", "T2 sequence (Q16288 32-429 limits assumed)": "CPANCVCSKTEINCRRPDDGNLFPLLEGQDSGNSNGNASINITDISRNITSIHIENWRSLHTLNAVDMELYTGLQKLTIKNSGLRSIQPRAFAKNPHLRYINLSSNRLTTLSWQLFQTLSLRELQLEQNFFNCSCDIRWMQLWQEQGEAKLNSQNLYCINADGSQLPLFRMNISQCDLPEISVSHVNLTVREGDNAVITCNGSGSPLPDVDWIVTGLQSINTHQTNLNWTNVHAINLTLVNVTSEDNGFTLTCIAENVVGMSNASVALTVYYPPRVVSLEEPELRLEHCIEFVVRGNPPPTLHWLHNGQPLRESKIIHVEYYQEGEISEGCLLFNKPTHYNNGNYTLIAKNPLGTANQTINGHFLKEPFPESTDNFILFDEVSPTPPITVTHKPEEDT", "assay": "ELISA binding of serum of peptide-immunised mice to Human-TrKC (Example 18)", "details": "serum dilutions 1:50 to 1:6400; blank serum as control"}, "Human-P75": {"molecular_target": "T3, Human-P75 (Homo sapiens, UniProt P08138)", "T3 construct": "purchased Sino Biological 13184-H08H", "T3 sequence (P08138 29-250 limits assumed)": "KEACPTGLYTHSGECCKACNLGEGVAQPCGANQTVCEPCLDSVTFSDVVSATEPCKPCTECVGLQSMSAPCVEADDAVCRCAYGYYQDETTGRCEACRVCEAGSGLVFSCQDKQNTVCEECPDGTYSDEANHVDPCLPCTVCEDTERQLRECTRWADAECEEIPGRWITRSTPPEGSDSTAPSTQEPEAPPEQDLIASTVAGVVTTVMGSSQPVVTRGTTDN", "assay": "ELISA binding of serum of peptide-immunised mice to Human-P75 (Example 18)", "details": "serum dilutions 1:50 to 1:6400; blank serum as control"}, "[1]": {"molecular_target": "binding of Human-TrKA receptor and its ligand Human-NGF (Human-TrKA受体与其配体Human-NGF结合) (Homo sapiens, UniProt P04629)", "sequence (P04629 33-796)": "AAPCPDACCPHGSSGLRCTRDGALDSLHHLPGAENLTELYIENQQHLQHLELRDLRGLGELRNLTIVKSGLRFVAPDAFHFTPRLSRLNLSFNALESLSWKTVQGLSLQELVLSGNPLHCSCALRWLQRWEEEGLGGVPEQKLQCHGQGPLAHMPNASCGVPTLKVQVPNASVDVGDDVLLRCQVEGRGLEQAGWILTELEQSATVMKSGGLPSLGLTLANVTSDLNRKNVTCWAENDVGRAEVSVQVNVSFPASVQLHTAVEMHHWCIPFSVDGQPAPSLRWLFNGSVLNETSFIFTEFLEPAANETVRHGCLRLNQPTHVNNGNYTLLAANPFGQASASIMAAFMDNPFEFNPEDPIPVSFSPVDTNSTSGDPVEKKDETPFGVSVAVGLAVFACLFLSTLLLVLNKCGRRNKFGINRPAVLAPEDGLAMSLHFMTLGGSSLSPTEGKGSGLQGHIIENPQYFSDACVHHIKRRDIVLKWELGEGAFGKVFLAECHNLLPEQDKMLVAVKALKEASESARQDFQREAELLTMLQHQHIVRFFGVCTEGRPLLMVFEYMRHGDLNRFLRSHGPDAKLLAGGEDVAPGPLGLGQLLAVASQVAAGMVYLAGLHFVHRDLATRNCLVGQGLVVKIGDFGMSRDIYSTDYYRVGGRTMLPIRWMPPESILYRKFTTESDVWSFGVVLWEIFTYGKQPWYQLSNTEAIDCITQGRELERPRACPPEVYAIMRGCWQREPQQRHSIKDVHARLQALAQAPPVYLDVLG", "assay": "ELISA blocking of Human-TrKA/Human-NGF binding by serum of peptide-immunised rabbits (Example 19)", "details": "300 μg each time"}}, "note": "Ends that are not written are not given here."}
{"substance": "MAAFMDNPFEFNPED-C-KLH: 多肽MAAFMDNPFEFNPED-C-KLH (SEQ ID NO:18; 钥孔血蓝蛋白(KLH)) (not fully specified (C-terminus); also: KLH carrier conjugated via C-terminal Cys)", "values": [{"measurement": "binding of immunised mouse serum", "setting": "Human-TrKB", "value": "没有明显结合"}, {"measurement": "binding of immunised mouse serum", "setting": "Human-TrKC", "value": "没有明显结合"}, {"measurement": "binding of immunised mouse serum", "setting": "Human-P75", "value": "没有明显结合"}, {"measurement": "Human-TrkA/Human-NGF binding signal (OD450) versus blank serum", "setting": "[1]; immunised rabbit serum diluted 1:2", "value": "显著性降低"}, {"measurement": "Human-TrkA/Human-NGF binding signal (OD450) versus blank serum", "setting": "[1]; immunised rabbit serum, no dilution stated", "value": "显著性降低"}]}
